Measurements published in the supplement of paper PMC9112550, “Optimization of the antimicrobial peptide Bac7 by deep mutational scanning” (BMC Biology, 2022).

Each sequence was assayed on Escherichia coli TOP10 (assay: shrunken log2 fold change of peptide-encoding DNA abundance (4.5 h post-induction vs induction); higher = less antimicrobial activity (less host growth inhibition)). Details: time post-induction: 4.5 h; library: site-saturation at positions 5, 18, 19, 20.
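Further: peptides expressed intracellularly from a pBAD plasmid library in pooled LB shake-flask culture, induced with 0.3% L-arabinose, DNA abundance read by NGS, three biological replicates, DESeq2 with apeglm shrinkage.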

Sequence	shrunken log2 fold change
RRIRQRPPRLPRPRPRPWPIPRP	-0.152
RRIRQRPPRLPRPRPRPRVIPRP	0.113
RRIRQRPPRLPRPRPRPKCTPRP	-0.0317
RRIRIRPPRLPRPRPRPIWWPRP	0.0713
RRIRFRPPRLPRPRPRPSDAPRP	-0.00375
RRIRRRPPRLPRPRPRPIHLPRP	-0.0465
RRIRQRPPRLPRPRPRPVGFPRP	0.00249
RRIRGRPPRLPRPRPRPNFTPRP	0.298
RRIRKRPPRLPRPRPRPGAIPRP	0.238
RRIRQRPPRLPRPRPRPGDAPRP	1.65
RRIRRRPPRLPRPRPRPWGHPRP	-0.165
RRIRKRPPRLPRPRPRPKKMPRP	0.718
RRIRLRPPRLPRPRPRPNEPPRP	-0.213
RRIRQRPPRLPRPRPRPKMLPRP	0.0996
RRIRERPPRLPRPRPRPTTAPRP	0.0732
RRIRYRPPRLPRPRPRPLRWPRP	0.184
RRIRPRPPRLPRPRPRPHYQPRP	-0.417
RRIRYRPPRLPRPRPRPFSCPRP	-0.0516
RRIRLRPPRLPRPRPRPSKKPRP	-0.0524
RRIRTRPPRLPRPRPRPAKRPRP	0.0872

Sequence	shrunken log2 fold change
RRIRGRPPRLPRPRPRPADQPRP	0.887
RRIRDRPPRLPRPRPRPDGNPRP	-0.00172
RRIRRRPPRLPRPRPRPPNAPRP	1.06
RRIRFRPPRLPRPRPRPLCVPRP	-0.394
RRIRGRPPRLPRPRPRPENFPRP	0.0598
RRIRCRPPRLPRPRPRPFVDPRP	-0.307
RRIRARPPRLPRPRPRPGSKPRP	0.227
RRIRARPPRLPRPRPRPMLRPRP	0.155
RRIRLRPPRLPRPRPRPNVTPRP	-0.286
RRIRHRPPRLPRPRPRPLDQPRP	-0.116
RRIRTRPPRLPRPRPRPHWSPRP	-0.147
RRIRDRPPRLPRPRPRPIYEPRP	0.0032
RRIRNRPPRLPRPRPRPKLAPRP	0.0921
RRIRMRPPRLPRPRPRPDSEPRP	1.82
RRIRWRPPRLPRPRPRPVKNPRP	0.238
RRIRPRPPRLPRPRPRPSMNPRP	-0.522
RRIRLRPPRLPRPRPRPFSTPRP	0.0382
RRIRHRPPRLPRPRPRPADKPRP	-0.245
RRIRSRPPRLPRPRPRPSKCPRP	-0.0382
RRIRCRPPRLPRPRPRPGPCPRP	0.0993

Sequence	shrunken log2 fold change
RRIRDRPPRLPRPRPRPKHQPRP	0.0157
RRIRARPPRLPRPRPRPRMDPRP	0.356
RRIRARPPRLPRPRPRPSQRPRP	0.373
RRIRERPPRLPRPRPRPTWYPRP	-0.217
RRIRGRPPRLPRPRPRPTTWPRP	0.521
RRIRFRPPRLPRPRPRPTNDPRP	-0.414
RRIRVRPPRLPRPRPRPFAYPRP	-0.528
RRIRTRPPRLPRPRPRPICAPRP	0.0827
RRIRHRPPRLPRPRPRPCCAPRP	-0.0125
RRIRARPPRLPRPRPRPQDGPRP	0.214
RRIRGRPPRLPRPRPRPFHEPRP	-0.537
RRIRIRPPRLPRPRPRPKPRPRP	0.576
RRIRARPPRLPRPRPRPTKMPRP	0.319
RRIRMRPPRLPRPRPRPSIRPRP	0.0426
RRIRQRPPRLPRPRPRPALAPRP	0.73
RRIRVRPPRLPRPRPRPEIMPRP	-0.194
RRIRYRPPRLPRPRPRPCVLPRP	-0.00875
RRIRYRPPRLPRPRPRPPIMPRP	-1.14
RRIRIRPPRLPRPRPRPNNSPRP	-0.655
RRIRDRPPRLPRPRPRPVPFPRP	2.99
